In the supplement of paper PMC9112550, “Optimization of the antimicrobial peptide Bac7 by deep mutational scanning” (BMC Biology, 2022):

system: Escherichia coli TOP10; experiment: shrunken log2 fold change of peptide-encoding DNA abundance (4.5 h post-induction vs induction); higher = less antimicrobial activity (less host growth inhibition); conditions: time post-induction: 4.5 h; library: site-saturation at positions 5, 18, 19, 20
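Note: peptides expressed intracellularly from a pBAD plasmid library in pooled LB shake-flask culture, induced with 0.3% L-arabinose, DNA abundance read by NGS, three biological replicates, DESeq2 with apeglm shrinkage.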

Going from RRIRHRPPRLPRPRPRPGETPRP to RRIRWRPPRLPRPRPRPYMYPRP, the “shrunken log2 fold change” value falls from -0.00149 to -0.848.

Compared with RRIRKRPPRLPRPRPRPHSIPRP, RRIRKRPPRLPRPRPRPYWNPRP is lower in “shrunken log2 fold change” value: 0.124 for the first, -0.106 for the second.

Compared with RRIRRRPPRLPRPRPRPADNPRP, RRIRCRPPRLPRPRPRPGGRPRP is higher in “shrunken log2 fold change” value: 0.111 for the first, 0.404 for the second.

Going from RRIRVRPPRLPRPRPRPFYIPRP to RRIRHRPPRLPRPRPRPKEFPRP, the “shrunken log2 fold change” value rises from -0.457 to -0.0336.

Compared with RRIRIRPPRLPRPRPRPHQPPRP, RRIRARPPRLPRPRPRPMKLPRP is higher in “shrunken log2 fold change” value: -0.421 for the first, 0.0594 for the second.

RRIRLRPPRLPRPRPRPWTWPRP and RRIRTRPPRLPRPRPRPPVIPRP are within 0.2 log units of each other in “shrunken log2 fold change” value: 0.0307 for the first, 0.213 for the second.

Compared with RRIRFRPPRLPRPRPRPLNVPRP, RRIRERPPRLPRPRPRPHPKPRP is higher in “shrunken log2 fold change” value: -0.345 for the first, 0.0177 for the second.

RRIRDRPPRLPRPRPRPMGLPRP and RRIRRRPPRLPRPRPRPSSFPRP are within 0.2 log units of each other in “shrunken log2 fold change” value: -0.00663 for the first, -0.0626 for the second.

Going from RRIRYRPPRLPRPRPRPQAIPRP to RRIRSRPPRLPRPRPRPPWLPRP, the “shrunken log2 fold change” value rises from -0.066 to 0.462.

Compared with RRIRWRPPRLPRPRPRPTWPPRP, RRIRIRPPRLPRPRPRPDESPRP is lower in “shrunken log2 fold change” value: 0.466 for the first, -0.172 for the second.

RRIRDRPPRLPRPRPRPEEYPRP and RRIRMRPPRLPRPRPRPIWYPRP are within 0.2 log units of each other in “shrunken log2 fold change” value: 0.0208 for the first, -0.158 for the second.

Compared with RRIRFRPPRLPRPRPRPCYVPRP, RRIRTRPPRLPRPRPRPGAMPRP is higher in “shrunken log2 fold change” value: -0.0693 for the first, 0.144 for the second.

RRIRPRPPRLPRPRPRPNNWPRP and RRIRIRPPRLPRPRPRPTLIPRP are within 0.2 log units of each other in “shrunken log2 fold change” value: -0.173 for the first, -0.101 for the second.

RRIRRRPPRLPRPRPRPTLMPRP and RRIRARPPRLPRPRPRPPFPPRP are within 0.2 log units of each other in “shrunken log2 fold change” value: 0.581 for the first, 0.625 for the second.

Compared with RRIRSRPPRLPRPRPRPTCNPRP, RRIRGRPPRLPRPRPRPIIPPRP is lower in “shrunken log2 fold change” value: 0.0589 for the first, -0.212 for the second.

Going from RRIRHRPPRLPRPRPRPMHYPRP to RRIRTRPPRLPRPRPRPVMVPRP, the “shrunken log2 fold change” value rises from -0.289 to -0.0537.

First: RRIRVRPPRLPRPRPRPMWEPRP
Second: RRIRSRPPRLPRPRPRPSSFPRP
The “shrunken log2 fold change” value of the first is higher: 0.0553 for the first, -0.356 for the second.

RRIRTRPPRLPRPRPRPSQSPRP and RRIRMRPPRLPRPRPRPNFNPRP are within 0.2 log units of each other in “shrunken log2 fold change” value: -0.114 for the first, -0.23 for the second.

Compared with RRIRVRPPRLPRPRPRPEFSPRP, RRIRCRPPRLPRPRPRPYIQPRP is lower in “shrunken log2 fold change” value: -0.0024 for the first, -0.3 for the second.

Compared with RRIRMRPPRLPRPRPRPCKEPRP, RRIRDRPPRLPRPRPRPPLLPRP is higher in “shrunken log2 fold change” value: -0.00822 for the first, 0.252 for the second.

RRIRWRPPRLPRPRPRPQTLPRP and RRIRQRPPRLPRPRPRPLSDPRP are within 0.2 log units of each other in “shrunken log2 fold change” value: 0.132 for the first, -0.0651 for the second.

Compared with RRIRPRPPRLPRPRPRPNLGPRP, RRIRGRPPRLPRPRPRPEHDPRP is higher in “shrunken log2 fold change” value: -0.242 for the first, 0.835 for the second.

RRIRWRPPRLPRPRPRPHDWPRP and RRIRHRPPRLPRPRPRPHGMPRP are within 0.2 log units of each other in “shrunken log2 fold change” value: 0.15 for the first, -0.000911 for the second.

First: RRIRCRPPRLPRPRPRPPDAPRP
Second: RRIRCRPPRLPRPRPRPATVPRP
The “shrunken log2 fold change” value of the first is higher: 0.354 for the first, 0.141 for the second.

RRIRNRPPRLPRPRPRPKDSPRP and RRIRSRPPRLPRPRPRPMNIPRP are within 0.2 log units of each other in “shrunken log2 fold change” value: -0.0312 for the first, -0.196 for the second.

RRIRCRPPRLPRPRPRPGGMPRP and RRIRWRPPRLPRPRPRPVFDPRP are within 0.2 log units of each other in “shrunken log2 fold change” value: 0.215 for the first, 0.138 for the second.

Going from RRIRRRPPRLPRPRPRPNSGPRP to RRIRMRPPRLPRPRPRPDNCPRP, the “shrunken log2 fold change” value falls from 0.279 to 0.00157.

Compared with RRIRARPPRLPRPRPRPLILPRP, RRIRWRPPRLPRPRPRPVRRPRP is higher in “shrunken log2 fold change” value: -0.252 for the first, 0.365 for the second.

Compared with RRIRVRPPRLPRPRPRPDNGPRP, RRIRNRPPRLPRPRPRPHLKPRP is lower in “shrunken log2 fold change” value: 0.0214 for the first, -0.875 for the second.

RRIRYRPPRLPRPRPRPLKTPRP and RRIRFRPPRLPRPRPRPGQSPRP are within 0.2 log units of each other in “shrunken log2 fold change” value: 0.0308 for the first, 0.0525 for the second.

First: RRIRNRPPRLPRPRPRPAPEPRP
Second: RRIRGRPPRLPRPRPRPYHFPRP
The “shrunken log2 fold change” value of the first is higher: 0.948 for the first, -0.041 for the second.

First: RRIRRRPPRLPRPRPRPNYCPRP
Second: RRIRNRPPRLPRPRPRPSDTPRP
The “shrunken log2 fold change” value of the first is lower: -0.25 for the first, -0.00711 for the second.

Compared with RRIRRRPPRLPRPRPRPWIVPRP, RRIRMRPPRLPRPRPRPYTLPRP is lower in “shrunken log2 fold change” value: 3 for the first, -0.274 for the second.

RRIRTRPPRLPRPRPRPEFFPRP and RRIRARPPRLPRPRPRPHKHPRP are within 0.2 log units of each other in “shrunken log2 fold change” value: -0.0853 for the first, 0.0909 for the second.

First: RRIRFRPPRLPRPRPRPRAQPRP
Second: RRIRKRPPRLPRPRPRPIYRPRP
The “shrunken log2 fold change” value of the first is higher: 0.191 for the first, -0.0881 for the second.

Going from RRIRERPPRLPRPRPRPIMRPRP to RRIRGRPPRLPRPRPRPQVAPRP, the “shrunken log2 fold change” value rises from -0.102 to 0.34.

RRIRSRPPRLPRPRPRPTRCPRP and RRIRKRPPRLPRPRPRPEACPRP are within 0.2 log units of each other in “shrunken log2 fold change” value: 0.264 for the first, 0.0762 for the second.

First: RRIRRRPPRLPRPRPRPAAPPRP
Second: RRIRFRPPRLPRPRPRPRMEPRP
The “shrunken log2 fold change” value of the first is higher: 0.922 for the first, -0.00899 for the second.

Going from RRIRYRPPRLPRPRPRPIQTPRP to RRIRVRPPRLPRPRPRPMYCPRP, the “shrunken log2 fold change” value rises from -0.499 to -0.233.

Compared with RRIRERPPRLPRPRPRPYQMPRP, RRIRWRPPRLPRPRPRPACFPRP is higher in “shrunken log2 fold change” value: -0.448 for the first, 0.513 for the second.

Compared with RRIRPRPPRLPRPRPRPWYNPRP, RRIRMRPPRLPRPRPRPPEKPRP is higher in “shrunken log2 fold change” value: -0.184 for the first, 2.49 for the second.

RRIRSRPPRLPRPRPRPRAWPRP and RRIRQRPPRLPRPRPRPQRYPRP are within 0.2 log units of each other in “shrunken log2 fold change” value: 0.0718 for the first, -0.0112 for the second.

RRIRGRPPRLPRPRPRPAVKPRP and RRIRYRPPRLPRPRPRPQFLPRP are within 0.2 log units of each other in “shrunken log2 fold change” value: 0.0152 for the first, -0.132 for the second.

First: RRIRIRPPRLPRPRPRPEICPRP
Second: RRIRVRPPRLPRPRPRPGKVPRP
The “shrunken log2 fold change” value of the first is higher: -0.0162 for the first, -0.272 for the second.

Compared with RRIRFRPPRLPRPRPRPIGVPRP, RRIRIRPPRLPRPRPRPFCQPRP is lower in “shrunken log2 fold change” value: -0.0194 for the first, -0.412 for the second.

First: RRIRVRPPRLPRPRPRPGWAPRP
Second: RRIRGRPPRLPRPRPRPTCTPRP
The “shrunken log2 fold change” value of the first is lower: 0.228 for the first, 0.975 for the second.

Going from RRIRGRPPRLPRPRPRPKGDPRP to RRIRIRPPRLPRPRPRPYFIPRP, the “shrunken log2 fold change” value falls from 0.0175 to -1.14.

Compared with RRIRCRPPRLPRPRPRPYCFPRP, RRIRNRPPRLPRPRPRPYGCPRP is higher in “shrunken log2 fold change” value: -0.783 for the first, -0.146 for the second.

Compared with RRIRFRPPRLPRPRPRPHPTPRP, RRIRARPPRLPRPRPRPYCEPRP is higher in “shrunken log2 fold change” value: -0.133 for the first, 0.0687 for the second.

Compared with RRIRIRPPRLPRPRPRPTPRPRP, RRIRCRPPRLPRPRPRPKYNPRP is lower in “shrunken log2 fold change” value: 0.466 for the first, -0.696 for the second.

First: RRIRPRPPRLPRPRPRPCCIPRP
Second: RRIRYRPPRLPRPRPRPIRNPRP
The “shrunken log2 fold change” value of the first is higher: -0.269 for the first, -1.17 for the second.

First: RRIRTRPPRLPRPRPRPVRYPRP
Second: RRIRNRPPRLPRPRPRPHLRPRP
The “shrunken log2 fold change” value of the first is higher: -0.028 for the first, -0.447 for the second.

Compared with RRIRMRPPRLPRPRPRPRLLPRP, RRIRSRPPRLPRPRPRPNMFPRP is lower in “shrunken log2 fold change” value: 0.421 for the first, -0.289 for the second.

Going from RRIRNRPPRLPRPRPRPGYLPRP to RRIRFRPPRLPRPRPRPQIMPRP, the “shrunken log2 fold change” value falls from 0.114 to -0.736.

In the case of RRIRARPPRLPRPRPRPGLCPRP, the “shrunken log2 fold change” value is reported as 0.553.
